Source: patent US8409836B2, “Treatment of cellulosic material and enzymes useful therein” (Roal Oy, priority 2005, dated 2013)

Key:
Format in all cases: biochemical
[1] = Hydrolysis with endoglucanase preparations, spruce; settings: 48 h, 45° C., pH 5.0
Description: (§1) The preparations containing the endoglucanases were compared in hydrolysis studies mixed with the purified CBH/Cel7 and CBH/Cel6 enzymes on several pre-treated substrates. Culture filtrates of T. reesei, containing different cloned endoglucanase enzymes were obtained as described in Example 19. The enzymes were enriched by removing thermolabile proteins from the mixtures by a heat treatment (60° C., 2 h, pH 5) and the supernatant was used for the hydrolysis studies. In addition, pure T. reesei cellulases (purified as described by Suurnäkki et al., 2000) were used in the enzyme mixtures. The endoglucanases used in the experiment were:
Washed steam pre-treated spruce fibre (impregnation with 3% SO2 for 20 min, followed by steam pre-treatment at 215° C. for 5 min), dry matter 25.9% (SPRUCE).
(§2) The endoglucanases to be studied (dosage 840 nkat/g dry matter, based on endoglucanase activity against HEC according to IUPAC, 1987) were used either with cellobiohydrolases of T. reesei (CBHI/Cel7A, 8.1 mg/g d.m. and CBHII/Cel6A, 2.0 mg/g d.m.) or with Thermoascus aurantiacus Cel7A with genetically attached CBD of T. reesei (10.1 mg/g d.m.). Purified (Suurnäkki et al., 2000) EGI (Cel7B) and EGII (Cel5A) of T. reesei were also included in the experiments for comparison. All mixtures were supplemented with additional β-glucosidase from Novozym 188 (to make the total β-glucosidase dosage 560 nkat/g d.w., the relatively high dosage was used to compensate the differences in the background activities of the different EG preparations). Triplicate tubes were incubated in mixing at 45° C. for 48 h and reference samples with inactivated enzymes and corresponding substrates were prepared. The release of hydrolysis products was measured as reducing sugars with DNS method using glucose as standard (Table 31).

[2] = pH optimum of heterologously produced endoglucanases; settings: McIlvaine's buffer, pH range 4.0-8.0, CMC, 10 min, 50° C.
Description: The pH optimum of the heterologously produced endoglucanases was determined in the universal McIlvaine's buffer within a pH range of 4.0-8.0 using carboxymethylcellulose as substrate. As shown in FIG. 6 A the broadest pH range (4.5-6.0) is that of the Acremonium EG—40/Cel45A protein, the optimum being at pH 5.5. The pH optima for the other heterologously produced endoglucanases are pH 5.0-5.5 and 6.0 for Acremonium EG—40_like/Cel45B and Thermoascus EG—28/Cel5A, respectively. The optimal temperature for enzymatic activity of these endoglucanases was determined at the temperature range of 50-85° C. as described above. The highest activity of the enzymes was determined to be at 75° C., 60° C., and 75° C. for the Acremonium EG—40/Cel45A, EG—40 like/Cel45B, and Thermoascus EG—28/Cel5A, respectively (FIG. 6 B).

[3] = Hydrolysis with endoglucanase preparations, corn stover; settings: with CBHI and CBHII of T. reesei; 48 h, 45° C., pH 5.0
Description: as §1
Steam exploded corn stover fibre (steam pre-treatment at 210° C. for 5 min), dry matter 31.0% (SECS).
as §2

B1: Ta EG_28: endoglucanase of Thermoascus aurantiacus ALKO4242, gene Ta cel5A, amino acid SEQ ID NO: 10 (protein)
chain: MKLGSLVLALSAARLTLSAPLADRKQETKRAKVFQWFGSNESGAEFGSQNLPGVEGKDYIWPDPNTIDTLISKGMNIFRVPFMMERLVPNSMTGSPDPNYLADLIATVNAITQKGAYAVVDPHNYGRYYNSIISSPSDFQTFWKTVASQFASNPLVIFDTNNEYHDMDQTLVLNLNQAAIDGIRSAGATSQYIFVEGNSWTGAWTWTNVNDNMKSLTDPSDKIIYEMHQYLDSDGSGTSATCVSSTIGQERITSATQWLRANGKKGIIGEFAGGANDVCETAITGMLDYMAQNTDVWTGAIWWAAGPWWGDYIFSMEPDNGIAYQQILPILTPYL
[1]; with CBHI and CBHII of T. reesei
  Hydrolysis products as reducing sugars, SPRUCE: 3.0 mg/mL
[1]; with T. aurantiacus Cel7A + Tr CBD
  Hydrolysis products as reducing sugars, SPRUCE: 1.5 mg/mL
[2]
  pH optimum: 6.0
[3]
  Hydrolysis products as reducing sugars, SECS: 3.9 mg/mL
